Data: US7642244 (Hoffmann-La Roche, dated 2010)
Starred links: 1 amine or outer side, 2 acyl side, 3 side chain; linkers in the order of their positions; H or OH if unused. Non-standard residues stand in square brackets, D forms with d. No end group written: not given here. Pqa = 4-oxo-6-(1-piperazinyl)-3(4H)-quinazoline-acetic acid, O=C(Cn1cnc2ccc(N3CCN([*:1])CC3)cc2c1=O)[*:2]; Phe(3,4-Cl2) = N[C@@H](Cc1ccc(Cl)c(Cl)c1)C(=O)O; Phe(4-CF3) = N[C@@H](Cc1ccc(C(F)(F)F)cc1)C(=O)O; Phe(F5) = N[C@@H](Cc1c(F)c(F)c(F)c(F)c1F)C(=O)O; Phe(3-F) = N[C@@H](Cc1cccc(F)c1)C(=O)O; NMeR = CN[C@@H](CCCNC(=N)N)C(=O)O

T1: human NPY2 receptor (human, UniProt P49146 1-381)
T1 sequence (looked up): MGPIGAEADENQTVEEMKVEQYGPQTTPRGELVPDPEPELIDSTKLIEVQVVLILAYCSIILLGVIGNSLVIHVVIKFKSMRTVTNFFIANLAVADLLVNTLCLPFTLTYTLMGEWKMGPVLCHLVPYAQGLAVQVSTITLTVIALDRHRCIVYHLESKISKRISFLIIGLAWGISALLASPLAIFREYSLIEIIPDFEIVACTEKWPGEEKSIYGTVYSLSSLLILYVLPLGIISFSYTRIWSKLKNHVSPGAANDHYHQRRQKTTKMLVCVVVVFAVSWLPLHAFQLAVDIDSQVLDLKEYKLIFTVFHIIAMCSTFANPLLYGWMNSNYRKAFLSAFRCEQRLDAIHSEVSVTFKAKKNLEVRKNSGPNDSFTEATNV

T2: Y5R
T2 sequence (Q15761 whole entry, species assumed, looked up): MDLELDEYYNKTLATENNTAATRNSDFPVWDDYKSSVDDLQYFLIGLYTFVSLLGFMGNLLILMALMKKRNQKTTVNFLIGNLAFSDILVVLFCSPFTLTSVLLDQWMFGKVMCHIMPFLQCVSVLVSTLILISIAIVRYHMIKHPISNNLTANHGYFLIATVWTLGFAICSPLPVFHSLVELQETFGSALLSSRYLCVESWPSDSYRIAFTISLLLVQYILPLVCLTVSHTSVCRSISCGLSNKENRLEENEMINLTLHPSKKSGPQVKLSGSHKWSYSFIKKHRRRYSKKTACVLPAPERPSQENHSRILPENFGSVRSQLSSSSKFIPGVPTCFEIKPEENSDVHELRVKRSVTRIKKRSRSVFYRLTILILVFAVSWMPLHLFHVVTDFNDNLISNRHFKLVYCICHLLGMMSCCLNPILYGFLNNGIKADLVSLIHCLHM

B1: mixture of ((PEG-30,000)CH2CH2CO)Ile-Lys-Pqa-Arg-His-Tyr-Leu-Asn-Trp-Val-Thr-Arg-Gln-(NMe)Arg-Tyr-NH2 and … (peptide)
peptide: IK[Pqa]RHYLNWVTRQ[NMeR]Y-NH2
modifications: also: mixture: PEG30,000 SPA on N-terminal Ile or on Lys ε-amino (majority on Lys)
B2: Ac-Ile-Lys-Pqa-Arg-His-Tyr-Leu-Asn-Trp-Val-Thr-Arg-Gln-(NMe)Arg-2,6-F2-Tyr-NH2 (peptide)
peptide: IKXRHYLNWVTRQRY
HELM: PEPTIDE1{[ac].I.K.[O=C(Cn1cnc2ccc(N3CCN([*:1])CC3)cc2c1=O)[*:2]].R.H.Y.L.N.W.V.T.R.Q.[meR].[O=C([C@H](Cc1c(F)cc(O)cc1F)N[*:1])[*:2]].[am]}$$$$V2.0
SMILES: CC[C@H](C)[C@H](NC(C)=O)C(=O)N[C@@H](CCCCN)C(=O)N1CCN(c2ccc3ncn(CC(=O)N[C@@H](CCCNC(=N)N)C(=O)N[C@@H](Cc4c[nH]cn4)C(=O)N[C@@H](Cc4ccc(O)cc4)C(=O)N[C@@H](CC(C)C)C(=O)N[C@@H](CC(N)=O)C(=O)N[C@@H](Cc4c[nH]c5ccccc45)C(=O)N[C@H](C(=O)N[C@H](C(=O)N[C@@H](CCCNC(=N)N)C(=O)N[C@@H](CCC(N)=O)C(=O)N(C)[C@@H](CCCNC(=N)N)C(=O)N[C@@H](Cc4c(F)cc(O)cc4F)C(N)=O)[C@@H](C)O)C(C)C)c(=O)c3c2)CC1
B3: H-Ile-Lys-Pqa-Arg-His-Tyr-Leu-Asn-Leu-Val-Thr-Arg-Gln-(NMe)Arg-2-Nal-NH2 (peptide)
peptide: IKXRHYLNLVTRQRX
modifications: Pqa as third residue; (NMe)Arg as penultimate residue; 2-Nal (2-Naphthyl Alanine) as C-terminal residue; C-terminal amide (NH2)
B4: Benzoyl-Ile-Lys-Pqa-Arg-His-Tyr-Leu-Asn-Trp-Val-Thr-Arg-Gln-(NMe)Arg-Tyr-NH2 (peptide)
peptide: IKXRHYLNWVTRQRY
HELM: PEPTIDE1{[O=C(c1ccccc1)[*:2]].I.K.[O=C(Cn1cnc2ccc(N3CCN([*:1])CC3)cc2c1=O)[*:2]].R.H.Y.L.N.W.V.T.R.Q.[meR].Y.[am]}$$$$V2.0
SMILES: CC[C@H](C)[C@H](NC(=O)c1ccccc1)C(=O)N[C@@H](CCCCN)C(=O)N1CCN(c2ccc3ncn(CC(=O)N[C@@H](CCCNC(=N)N)C(=O)N[C@@H](Cc4c[nH]cn4)C(=O)N[C@@H](Cc4ccc(O)cc4)C(=O)N[C@@H](CC(C)C)C(=O)N[C@@H](CC(N)=O)C(=O)N[C@@H](Cc4c[nH]c5ccccc45)C(=O)N[C@H](C(=O)N[C@H](C(=O)N[C@@H](CCCNC(=N)N)C(=O)N[C@@H](CCC(N)=O)C(=O)N(C)[C@@H](CCCNC(=N)N)C(=O)N[C@@H](Cc4ccc(O)cc4)C(N)=O)[C@@H](C)O)C(C)C)c(=O)c3c2)CC1
B5: H-Ile-Nle-Pqa-Arg-His-Tyr-Leu-Asn-Trp-Val-Thr-Arg-Gln-(NMe)Arg-Tyr-NH2 (peptide)
peptide: IXXRHYLNWVTRQRY
modifications: Nle as second residue; Pqa as third residue; (NMe)Arg as penultimate residue; C-terminal amide (NH2)

Experiments:
Assay in all cases: cell-based or functional assay
human NPY2 receptor = molecular target: T1, human NPY2 receptor
Y5R = molecular target: T2, Y5R
Y1R = molecular target: Y1R
Y4R = molecular target: Y4R

Sequence of Y1R (P25929 whole entry): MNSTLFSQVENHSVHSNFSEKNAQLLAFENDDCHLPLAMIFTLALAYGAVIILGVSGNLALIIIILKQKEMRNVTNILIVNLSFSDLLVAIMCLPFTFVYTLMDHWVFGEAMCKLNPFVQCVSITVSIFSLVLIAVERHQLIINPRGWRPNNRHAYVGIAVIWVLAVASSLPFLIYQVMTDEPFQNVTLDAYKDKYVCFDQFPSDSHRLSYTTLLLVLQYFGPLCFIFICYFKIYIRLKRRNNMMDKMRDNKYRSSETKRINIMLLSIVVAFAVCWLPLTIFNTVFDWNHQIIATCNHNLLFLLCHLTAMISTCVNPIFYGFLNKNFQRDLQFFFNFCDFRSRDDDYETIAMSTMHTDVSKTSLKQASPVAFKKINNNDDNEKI

| Binder | Y2R EC50 (nM) FLIPR (human NPY2 receptor) [nM] | Y2R EC50 (nM) cAMP (human NPY2 receptor) [nM] | Y5R EC50 (nM) FLIPR (Y5R) [nM] | Y1R EC50 (nM) FLIPR (Y1R) [nM] | Y4R EC50 (nM) FLIPR (Y4R) [nM] |
| --- | --- | --- | --- | --- | --- |
| H-IK[Pqa]RHYLNLVTRQ[NMeR][Phe(4-CF3)]-NH2 [H-Ile-Lys-Pqa-Arg-His-Tyr-Leu-Asn-Leu-Val-Thr-Arg-Gln-(NMe)Arg-4-trifluoro methyl-Phe-NH2] | 6.13 | 3.55 |  |  |  |
| H-IK[Pqa]RHYLNLVTRQ[NMeR][Phe(F5)]-NH2 [H-Ile-Lys-Pqa-Arg-His-Tyr-Leu-Asn-Leu-Val-Thr-Arg-Gln-(NMe)Arg-2,3,4,5,6 Pentafluoro-Phe-NH2] | 11.9 | 2.5 |  |  |  |
| B1 |  |  | > 5000 | > 5000 | > 5000 |
| B2 | 1.44 | 0.07 | 5810 | > 5000 | > 5000 |
| H-IK[Pqa]RHYLNLVTRQ[NMeR][Phe(3,4-Cl2)]-NH2 [H-Ile-Lys-Pqa-Arg-His-Tyr-Leu-Asn-Leu-Val-Thr-Arg-Gln-(NMe)Arg-3,4-dichloro-Phe-NH2] | 4.03 | 1.47 |  |  |  |
| H-IK[Pqa]RHYLNWVTRQ[NMeR]Y-NH2 [H-Ile-Lys-Pqa-Arg-His-Tyr-Leu-Asn-Trp-Val-Thr-Arg-Gln-(NMe)Arg-Tyr-NH2] | 0.44 | 0.25 | > 5000 | 298 | > 5000 |
| B3 | 4.11 | 2.4 |  |  |  |
| B4 | 0.79 | 0.66 | > 5000 | > 5000 | > 5000 |
| H-IK[Pqa]RHYLNLVTRQ[NMeR][Phe(3-F)]-NH2 [H-Ile-Lys-Pqa-Arg-His-Tyr-Leu-Asn-Leu-Val-Thr-Arg-Gln-(NMe)Arg-3Fluoro-Phe-NH2] | 0.635 | 0.75 |  |  |  |
| H-IK[Pqa]RHYLNLVTRQ[NMeR]F-NH2 [H-Ile-Lys-Pqa-Arg-His-Tyr-Leu-Asn-Leu-Val-Thr-Arg-Gln-(NMe)Arg-Phe-NH2] | 1.54 | 0.69 |  |  |  |
| B5 | 8.1 | 0.108 | > 5000 | > 5000 | > 5000 |
